The target of the data set is T1, SgrAI restriction endonuclease (UniProt Q9F6L0 1-338).
T1 sequence: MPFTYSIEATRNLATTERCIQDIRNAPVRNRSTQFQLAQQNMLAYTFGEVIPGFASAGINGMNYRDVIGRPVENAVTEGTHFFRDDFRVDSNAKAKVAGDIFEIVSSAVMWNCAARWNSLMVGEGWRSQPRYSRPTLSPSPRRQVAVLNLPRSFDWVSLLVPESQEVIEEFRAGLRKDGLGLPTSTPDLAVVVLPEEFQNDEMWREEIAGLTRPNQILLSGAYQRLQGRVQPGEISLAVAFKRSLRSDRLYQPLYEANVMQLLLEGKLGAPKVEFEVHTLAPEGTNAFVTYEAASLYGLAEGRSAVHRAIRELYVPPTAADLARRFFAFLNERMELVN
The experiment in a line: X-ray crystallography.

B1: Cognate 18 (dsDNA)
DNA 1: GAGTCCACCGGTGGACTC
DNA 2: GAGTCCACCGGTGGACTC
Regarding B1, the binding result is on record as “binds”.

The record behind these values is publication PMC2532715.
